Experimental data from patent publication US9340584 (GENERAL HOSPITAL, dated 2016).

Legend:
control CD19 protein = molecular target: T1, control CD19 protein (UniProt P15391 20-291, limits assumed); experiment: phage ELISA
T1 sequence (looked up): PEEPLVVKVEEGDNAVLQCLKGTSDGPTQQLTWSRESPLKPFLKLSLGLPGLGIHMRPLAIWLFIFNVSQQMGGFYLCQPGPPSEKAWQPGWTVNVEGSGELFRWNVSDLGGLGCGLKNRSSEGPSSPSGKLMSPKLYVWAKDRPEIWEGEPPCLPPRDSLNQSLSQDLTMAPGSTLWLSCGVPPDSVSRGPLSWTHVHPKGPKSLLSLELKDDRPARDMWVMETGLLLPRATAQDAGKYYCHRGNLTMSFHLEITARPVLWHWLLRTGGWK

[1] = molecular target: T2, streptavidin (streptavidin coated plate, wells without immobilized CD5) (UniProt P22629 37-163, limits assumed); experiment: phage ELISA, streptavidin coated wells without immobilized CD5
T2 construct: also called control streptavidin

rat serum albumin = molecular target: T3, rat serum albumin (rat, UniProt P02770 25-608, biotinylated); experiment: phage ELISA, RSA-biotin on streptavidin plate
T3 construct: also called RSA; RSA-biotin

mouse serum albumin = molecular target: T4, mouse serum albumin (mouse, UniProt P07724 25-608, biotinylated); experiment: phage ELISA, MSA-biotin on streptavidin plate
T4 construct: also called MSA; MSA-biotin

[2] = molecular target: T5, CD5 expressed on the cell surface (transfected HEK293T cells; Raji cells ectopically expressing wild type CD5) (UniProt P06127 25-495, limits assumed); experiment: cell-based or functional assay
T5 sequence (looked up): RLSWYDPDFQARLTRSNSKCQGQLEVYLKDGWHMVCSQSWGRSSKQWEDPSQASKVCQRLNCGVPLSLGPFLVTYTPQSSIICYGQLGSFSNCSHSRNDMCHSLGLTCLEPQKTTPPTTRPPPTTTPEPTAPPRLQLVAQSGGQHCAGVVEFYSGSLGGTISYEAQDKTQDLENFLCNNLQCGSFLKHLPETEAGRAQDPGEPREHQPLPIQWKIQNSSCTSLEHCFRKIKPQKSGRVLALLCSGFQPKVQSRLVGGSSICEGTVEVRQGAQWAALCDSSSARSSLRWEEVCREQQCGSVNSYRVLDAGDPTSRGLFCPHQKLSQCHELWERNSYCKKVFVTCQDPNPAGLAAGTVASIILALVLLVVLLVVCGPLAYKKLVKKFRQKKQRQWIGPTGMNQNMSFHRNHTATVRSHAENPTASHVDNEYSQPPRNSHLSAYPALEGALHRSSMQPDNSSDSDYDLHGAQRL

T3 sequence (P02770 25-608 limits assumed): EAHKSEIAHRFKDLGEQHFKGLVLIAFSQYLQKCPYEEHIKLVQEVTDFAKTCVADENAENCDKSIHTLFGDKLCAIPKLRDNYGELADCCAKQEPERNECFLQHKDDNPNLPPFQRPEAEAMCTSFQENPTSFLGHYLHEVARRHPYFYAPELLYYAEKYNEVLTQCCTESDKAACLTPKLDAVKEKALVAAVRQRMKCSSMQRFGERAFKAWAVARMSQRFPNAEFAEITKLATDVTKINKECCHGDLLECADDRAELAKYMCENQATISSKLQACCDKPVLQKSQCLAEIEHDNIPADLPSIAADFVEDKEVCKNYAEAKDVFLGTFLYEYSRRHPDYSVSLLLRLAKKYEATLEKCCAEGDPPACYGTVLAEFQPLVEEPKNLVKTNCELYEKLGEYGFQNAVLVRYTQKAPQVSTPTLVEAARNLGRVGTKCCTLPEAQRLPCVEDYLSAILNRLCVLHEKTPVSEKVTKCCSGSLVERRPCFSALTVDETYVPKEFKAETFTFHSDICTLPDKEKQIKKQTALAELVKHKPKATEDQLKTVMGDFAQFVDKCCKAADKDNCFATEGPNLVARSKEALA
T4 sequence (P07724 25-608 limits assumed): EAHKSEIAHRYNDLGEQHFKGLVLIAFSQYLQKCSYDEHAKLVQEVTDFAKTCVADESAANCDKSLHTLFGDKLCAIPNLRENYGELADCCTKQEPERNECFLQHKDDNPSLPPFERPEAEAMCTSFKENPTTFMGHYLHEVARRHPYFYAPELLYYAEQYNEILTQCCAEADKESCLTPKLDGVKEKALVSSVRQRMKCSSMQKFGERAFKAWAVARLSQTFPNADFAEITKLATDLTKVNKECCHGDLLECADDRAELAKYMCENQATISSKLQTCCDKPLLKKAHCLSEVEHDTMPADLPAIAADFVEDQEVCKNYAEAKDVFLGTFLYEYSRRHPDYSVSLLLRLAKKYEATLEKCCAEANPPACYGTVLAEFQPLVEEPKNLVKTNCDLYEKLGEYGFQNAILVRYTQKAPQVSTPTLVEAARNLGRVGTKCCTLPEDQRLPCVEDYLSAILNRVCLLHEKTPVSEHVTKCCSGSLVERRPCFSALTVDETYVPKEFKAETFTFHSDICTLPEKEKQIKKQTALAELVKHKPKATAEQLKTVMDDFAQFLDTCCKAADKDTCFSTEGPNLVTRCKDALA
T2 sequence (P22629 37-163 limits assumed): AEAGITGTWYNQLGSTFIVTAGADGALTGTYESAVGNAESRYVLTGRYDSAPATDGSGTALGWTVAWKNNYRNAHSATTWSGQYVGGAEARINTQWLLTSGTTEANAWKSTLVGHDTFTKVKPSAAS

B1: CD5 binder A1 (TRX-3 library) (designed binder)
chain: MVKQIESKTAFQEALDAAGDKLVVVDFSATQWWGWIDGQWSGPSKMIKPFFHSLSEKYSNVIFLEVDVDDAQDVASEAYPLFGMAALPTFQFFKKGQKVGEFSGANKEKLEATINELV
- binding result (control CD19 protein): no binding

B2: CD5 binder E10 (TRX-3 library) (designed binder)
chain: MVKQIESKTAFQEALDAAGDKLVVVDFSATKERDSAWDDWSGPSKMIKPFFHSLSEKYSNVIFLEVDVDDAQDVASEAFYWSYPSLPPTFQFFKKGQKVGEFSGANKEKLEATINELV
- binding result (control CD19 protein): no binding

B3: CD5 binder E6 (TRX-3 library), phage-displayed (designed binder)
chain: MVKQIESKTAFQEALDAAGDKLVVVDFSATNTIKHGGSRWSGPSKMIKPFFHSLSEKYSNVIFLEVDVDDAQDVASEAEKGILVSPLPTFQFFKKGQKVGEFSGANKEKLEATINELV
notes: also called E6 phage
- binding result [1]: no binding

B4: HSA binder E5 (TRX-3 library), phage-displayed (designed binder)
chain: MVKQIESKTAFQEALDAAGDKLVVVDFSATRRNERARDWWSGPSKMIKPFFHSLSEKYSNVIFLEVDVDDAQDVASEALAAGPFYLLPTFQFFKKGQKVGEFSGANKEKLEATINELV
notes: AGPF loop 3′ motif
- binding result (rat serum albumin): no binding
- binding result (mouse serum albumin): no binding

B5: HSA binder E1 (TRX-3 library), phage-displayed (designed binder)
chain: MVKQIESKTAFQEALDAAGDKLVVVDFSATRSENDRWNEWSGPSKMIKPFFHSLSEKYSNVIFLEVDVDDAQDVASEALIAGPFWYSPTFQFFKKGQKVGEFSGANKEKLEATINELV
notes: AGPF loop 3′ motif
- binding result (rat serum albumin): no binding
- binding result (mouse serum albumin): no binding

B6: E6-aerolysin fusion protein (other)
chain: MVKQIESKTAFQEALDAAGDKLVVVDFSATNTIKHGGSRWSGPSKMIKPFFHSLSEKYSNVIFLEVDVDDAQDVASEAEKGILVSPLPTFQFFKKGQKVGEFSGANKEKLEATINELVGEIPTLSALDIPDGDEVDVQWRLVHDSANFIKPTSYLAHYLGYAWVGGNHSQYVGEDMDVTRDGDGWVIRGNNDGGCDGYRCGDKTAIKVSNFAYNLDPDSFKHGDVTQSDRQLVKTVVGWAVNDSDTPQSGYDVTLRYDTATNWSKTNTYGLSEKVTTKNKFKWPLVGETELSIEIAANQSWASQNGGSTTTSLSQSVRPTVPARSKIPVKIELYKADISYPYEFKADVSYDLTLSGFLRWGGNAWYTHPDNRPNWNHTFVIGPYKDKASSIRYQWDKRYIPGEVKWWDWNWTIQQNGLSTMQNNLARVLRPVRAGITGDFSAESQFAGNIEIGAPVPLAADSKVRRARSVDGAGQGLRLEIPLDAQELSGLGFNNVSLSVTPAANQ
modifications: labelled with NHS-fluorescein for FACS (sites not given)
- EC50, MTS cytotoxicity assay on CD5+ Raji cells, 48 hours [2]: 132 nM

B7: HSA binder G5 (TRX-3 library), phage-displayed (designed binder)
chain: MVKQIESKTAFQEALDAAGDKLVVVDFSATRLRTGGHPYWSGPSKMIKPFFHSLSEKYSNVIFLEVDVDDAQDVASEAVYVSLSRHRPTFQFFKKGQKVGEFSGANKEKLEATINELV
- binding result (rat serum albumin): no binding
- binding result (mouse serum albumin): no binding

B8: CD5 binder A5 (TRX-3 library) (designed binder)
chain: MVKQIESKTAFQEALDAAGDKLVVVDFSATQCNTGESHDWSGPSKMIKPFFHSLSEKYSNVIFLEVDVDDAQDVASEAWSPLIMCTMPTFQFFKKGQKVGEFSGANKEKLEATINELV
- binding result (control CD19 protein): no binding
